# According to the domain aggregation screens of Martell et al. (2025):
# Assay: soluble fraction after stress (log2 fold change); higher = more stays soluble; pooled small domains, quantitative proteomics
# Details: stress: 75 degC
# 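Further: 20 min heating vs room temperature control held 20 min.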
row,Sequence,soluble fraction (log2)
1,HMFYWTDLIGLDVINTADERLGKVVGLIETGANAVLRVMGDDQVERLLPFGSAVVLTVEKEAGQIRVEW,-2.11
2,HMGAARVTPLYNLRLREGPSTATARLDVVPRGTTLEVRAWDETGDWAQVEYRGQIGWIAAWLAEVEGEAP,-0.69
3,HMGADSFTGYTPIHKIDNPSDGINDGASYVVYFQKDGTDPTEFYKAVNANASTLAQLTSGTEYDLASSKKL,0.56
4,HMGAEIRDKVRAALAGLNPRAAEIFVMRYFDGYGNREIARLLNTSWSTIAVTLHRTRAKLQKELK,-0.0467
5,HMGAGDKQAQQASLMQIIALQKEGMALGLVEPKHLYHSFSKMIENAGFKDVQSFAVDPSTQQ,-0.0432
6,HMGAGEQMLPKVMFAEGDRVVHKVFGEGTVVTVDRPAQTYDIQFDKLRGTRRIMFRAELEGI,-0.693
7,HMGAGLDDLVRKSLHNAGLKADDNVVSWISGNLGSDRMVSRMELEKLVLFVAGQSEITLEDAQAVIGD,-0.524
8,HMGAGLKIGNDHEYANYLEYKVSVEKYAPGAILGEIKQKGIQFNTTISKTTFYRYITDGVFLTITNADLPV,0.374
9,HMGALTGQERRAEIMNILRQSTMPLSGAALGKQLGVSRQVVVQDIALLRQSGEEIYATNRGYVTG,-0.417
10,HMGAQPLIEPLSERELEVLALIAEGLTNAEIGRRLFIATGTVKRHVNTIYGKLDVHGRIEAIARARDLHLI,-1.25
11,HMGAQRDFELQLIDVIRQNPGLTYKAYGEKLSVSQATVKRLVAKLKETGSIRREGSQRKGTWIITDD,-1.49
12,HMGARWPIQDRPLTATEAAAVRRMYAGGLPHGRSKNSVITEVWGDLSNKPKRLDWLNQALEGGA,0.0155
13,HMGASGVEVPDVAGMSTAQAVSSLEQKGFVVNRTESYDAGVEKGNVISQSPEGGTKAPNGSAVTIRISQGA,0.831
14,HMGASIQITVNNTPVMLKNKTHYTLVDVLDFYPFDLSKMGGTELYTAINGVKSGFTDPVHANDSIEIYWI,-2.49
15,HMGASSLVGRSARVLQAVTDSDGRIKLAGETWSARLAAGATSTVGPGEEVRVIAIHGATAIVAPV,-0.581
16,HMGASVGEVESVKTASEIYTAAAGKIVAVNDAVAKDPSLVNSDPYGNGWLVKLEIADLSAINA,0.0161
17,HMGAVDIATARQLISEIGLPIMLKAEGGGGGRGIFAIHNEAELEDAFFKASTMAQASFGNPRLFVEKF,-0.441
18,HMGAVFEFIMEEEEPERIDKLLSSALPDLSRSYLQKLVKEGAVLVNKKEVKPNHKVNPGDVVEISVPEPE,0.448
19,HMGAVGISQKVTSLETAVLGKNFAKDPLIDRVARLEQTVLPKQAEANASLSLPERVSKLLEKVPIAAG,0.109
20,HMGAVPKNYFPAVEKGLQDSVQKGLLAGYPVVGVKAILYDGSYHPVDSSEMAFKTATIQAFKKGFMEA,0.187
21,HMGAYIPSYAPVDINAATHTVVRGDTVYNISKRYHVSQEDFRAWNGMADNTLSIGQVVKVKPAGYTAPK,-0.267
22,HMGDAVSRAYFALADDLLKGELTETVSEVLIRTRYELTSAQLQAVLHRIAQEGWAHKKPGYGWEFSAMLT,-2.01
23,HMGDEHYDTISAFIKSVRGSDPDAALYWLAKMILAGEDPRFILRRLIVLSGEDIGLADPQGI,-0.552
24,HMGDEPGAGYKWREDVLLRVMSEHGIDESARDDFVRHAVKFDDDDNLYLKKAEIIAAAEAWESSS,0.359
25,HMGDFLLQVDFPPALLEMLPEGKRQAAIGVLSHDPRPAYQRTPGRVYGLNFAGHNIRFAVSENLLTVLEV,-2.16
26,HMGDFLLTPHRGRSADFVIGNPPYIRLEDVPNDISDAYRAEYASMPGRADIHVGFYEKGLDL,-0.117

row,Sequence,soluble fraction (log2)
1,HMGDFVIVPDLIGKTIEEFDSELNELNLKYIISDSGNYNPDFKINSVLDQLPNANSKVKGGRKIYITLNAS,-1.05
2,HMGDGAWQQGEGGRWWYKYNNGTYPKDRVVTIGGKKYGFDSEGWMLSDTTKAFGGTTYSFAADGVATAQA,-0.0039
3,HMGDGYTYYYDDTVLALGFTKIGNDYYIFNTFSGKMYKDATMWVNDNPYGIKGGMHYFDASGKMFV,0.215
4,HMGDIFTAEDAKERIDYSGVDGIMLARGIFGNPWLIRDIREYLEYGKILHPVTQLDRVNMAIEHTRKT,0.169
5,HMGDIMLLFKENGKVYFLVGNQYTYVKNPTELSAIKTMMKQAGYDTHEHTNTTQVAYIKRLATE,-2.35
6,HMGDKVLIQTAQRLKKDLPFASIVSRFGGDEFLIFLPGISSTERVETIVKKTVFLFIAISTTLF,-0.28
7,HMGDLKSLIQATMDDAGISIKPDAMDYLISHLGSDRLTTRAELDKLILYAGADDKLDLDSVVELVG,0.00366
8,HMGDLLTVDRVAATSGLGVDTIRYYQRLGLLDPPVRHGRRALYSTAHLDRLVEIRQLADEGFSLAQIATL,-1.05
9,HMGDLVFDFVHGVHKAAEVEKELVMQALRFTHGNVSRAARLIGMQRSSLRYRIERYRLDAFVMEVAN,0.276
10,HMGDPSSERNIQKSIFILIGEKALSVQDISRSLGMPNDIIDKALISGVERNLWLSSDKGEYYL,-1.2
11,HMGDRRSVFEQSVLDAIKSLVKQGELATTKAISDHIGTNYQGNVSRAITALLADNKIKKLPKEGVLQPYEA,-0.0172
12,HMGDSFLDHKKELQSMILSRLDLSREVPDEEIKDIIDELIIAQSKKLFLSLNDRGKLRQELFYSIRK,-1.23
13,HMGDSVLNDKLNTLAGLDEERFKWVLASLNPNNSYSTHSDKMSALMWLVSYFNDEADLKETVPPLPI,-0.189
14,HMGDTIFINNNFYVKHIVEFGETIDIISKIYDVSVNKILETNETSTKLYSGQSLFIPININV,-3.47
15,HMGDTLEIVVIYSNKQKAEEAVNNLKGKFEDLGYNFAIITVDTSKITQLAMESSIQYIEFPKSFYFSD,-4.25
16,HMGDVATVKLDNNGLLNMRKSDARGADIVARIPNGTVVQVLNRETEWTQVRYDGKEGYVMSSFLQFAE,-0.047
17,HMGDVPESLVEKAGHSINAKIISAWGMTETGASTMTRPQDDPERAIYSDGVVLPLMDVRVVNDAGLA,-0.167
18,HMGDWEKALAQFAAHRLANGSTAFLDEMYPIFERILLQAALNKTGGRKIEAAELLGWGRNTLTRKLKELGF,-2.2
19,HMGDYERVPEYKGKLTSDLTMEDSQKFAFRFIWQNSDEDEGKIIDQDPPAGKSVAKGSEIVLYVSNG,0.474
20,HMGEAAIYRINILINNLNVRSGPGTLYPRLRRADFPGEYDIFEEKNGFGRISNTKSEWVSLNTQYVQRLT,-2.8
21,HMGEAIPVPDLKHKALTDAEHLVHELGLEIQVVDTGYVKSLPADYILGQSLAPGEKVKSGHIIYVTINSP,-1.23
22,HMGEGTAVGKALKFLAAQGKKFAPELLDMAGSLTGVEALSKLGDAIKGDPELSELDKRILLAELETDAV,-0.171
23,HMGEIHALIPGLVSRLFVKPGDRVENGQGLLILEAMKMENEIDSPISGVVGKIYIKAGDKVEKGELIMEIN,-1.45
24,HMGEIVVPDLIGKSLTEATRILSDSTLTVGKVNYQISSTLLPNTVLDQYPAPGNKLNSGNTVDLFITKE,0.068
25,HMGEKTLSEKVYDRLKELIMDGELERGTKITETSIAKMFDVSPTPVREAFRKLASDGLIEVASWKGVIVKG,-0.378
26,HMGELYGTDQYKDGDAQDTNIGKLLEVNIDGKWQVATTGTSRFEFAGVMDDNGHKLIMISVLPEAKTV,0.0596

row,Sequence,soluble fraction (log2)
1,HMGEPLSPDARALTNVLRHYRGWAEPGELARKSGLGSRERVLTAAQSLVNAGLADIERGMVRPTAALMEVQ,0.0619
2,HMGEPVASSREVAKRFGKEHKHVLAAIRQILVAENSATKFFHETAFEYRGQRFPEYLMNRDGFALLAMGF,-3.15
3,HMGEPVNSPMPGTILRVEVTQGAAVKEGQLLVVLEAMKMENEILAPKDGTVAQVVVQKGSHVETGSPLIVL,-0.508
4,HMGEQLALLERARTLLEDETLETEVQKELEMLLEDIEAARAEANATQLEDLFEELADLLFDLE,0.316
5,HMGEQYYVLIDNKQNGPHNINAIQKMIDQNIVNRQTLIWKKGMTDWGNIMDDKDLKEMVNKIP,0.111
6,HMGERMELTLDNPREAIPVLDAMGFANYQVVDKEHIHIFERLNESALVNMELAKAGIPVKGISITSE,0.0918
7,HMGESEWIVKWRGEKRDEERLQESELVRDDPEHRISVVRPRDDVDASAWLNRWRKSRYVQYIQPNHRVTIS,0.568
8,HMGESFPYVAYATDSVRLRARPSSSATILTVIRKGDAVLITGADGSYKIVEYEGRKGYVVSAFLSSQET,-2.51
9,HMGESVQVPSYVGMGFREAARKARARDFGVAVSDSIYVPGKPPGEIIAQDPKAESRVKEGRTIYFTVAK,-0.109
10,HMGETAFRYALPLDQGEALKRSHVIRQSISPDDALATRVTVLEDVLDQTLRQPVQAGEVLLEDHFTR,-0.0825
11,HMGETRWTYDDFGNILTEKAAPYSATEFLGKTYTYDTDNRYLKTVTDALGRTTTTLSYDKYGNPLSVMD,0.115
12,HMGETWYEILEISSDATTEEIRQAYFEQARQYHPDTNPGELAREWFYQVQEAYETLSDPDRRRQYDESIKG,-0.0285
13,HMGEVEVPDLVGIEAIQAKTLLFNSDFLIKEFYDYDPTQPIGVVIRQAPEAGTTQTIGDSVTITINRA,-0.334
14,HMGEVISRSYPLLKTKAKPAEVSEALQKLIKAPATVTFDEKNEVFHINATRLQHTWAEGYFKGLHGK,-0.14
15,HMGEVPPGWSVEALAAIERDLAHHVGPVARVLVQRGARLHTTTDDLRSALANAITDDLARRRFMQP,-0.575
16,HMGFEALRSRHRITAREMEVLQHMLAGRSNAEIGHTLGLSERTVKTHITSIFNKLGVDSRAQLGYMLK,-1.87
17,HMGFLTKTQRLEILLHLKDEPYYNVEKLKELIKNRYGIVYQSSQSYYDLLKEAGLSWHQTQA,-2.33
18,HMGFVTVTEVDTTADLKLARVYVSVLGPEEQWAKSFTALESARGFVWNWLRKHLDLRVTPQLAF,-1.08
19,HMGGASVTDQQIRDFVSAHTDDPMAIYKAAVANGISSARLAQVTGISIADIEAFVRKNNLPSF,-0.0535
20,HMGGEEINMINLVGLSQSEAENQLAKLKLKIGQVTAEYSDKPSGTVLKQSISANNKVKKGADIDIVVSKG,-0.0126
21,HMGGELLSLRRIGTLTGISYPTLLRYVARYGEQIPQTGTGRSRRFPPAAVPVFQELRATRGRAPRATA,-0.104
22,HMGGEPKALLFAGVETREMAEITQRLEAADIPYEIREDGGSIYVARSEVFNARMMLSADGLPS,-0.455
23,HMGGFNATTLQNIEELRRSLSDADQFGRHEVIETIGGSDSRAGKLLKKMLEAGIIEQVKGHGKGRYRFKRT,0.0983
24,HMGGGEYTVAKGDTLWKIAAQTLGSPTRYAEIYNLNKDVIEETARGRGKRDSSNGHWLFPGTALKIPGT,0.421
